Test results taken from US20240336686A1 (ELPISCIENCE SUZHOU BIOPHARMA, published 2024).

B1: Reference anti-SIRPα antibody hu1H9G4 (antibody, human IgG4, V domains shown)
VH: QVQLVQSGAEVKKPGASVKVSCKASGYTFTSYWITWVKQAPGQGLEWIGDIYPGSGSTNHIEKFKSKATLTVDTSISTAYMELSRLRSDDTAVYYCATGYGSSYGYFDYWGQGTLVTVSS
VL: DIQMTQSPSSLSASVGDRVTITCRASENIYSYLAWYQQKPGKAPKLLIYTAKTLAEGVPSRFSGSGSGTDFTLTISSLQPEDFATYYCQHQYGPPFTFGQGTKLELK
B2: Anti-SIRPα antibody C42 (antibody, human IgG4, V domains shown)
VH: QIQLVQSGPELKKPGETVKISCRASGYTFTTYGMSWVKQAPGKGLRWMGWINTYSGVSTCADDFKGRFAFSLETSATTAYLQIHNLTNEDTATYFCARDPHSYGNSPAWFPYWGQGTLVTVSA
VL: DIVMTQSQKFMSTTIRDRVSITCKASQNVGISVAWYQQKSGQSPKLLIYSASNRYTGVPDRFTGSGSGTDFTLTISNMQSEDLADYFCQQYSSYPLTFGSGTKLAIK
notes: Mouse variable regions; also called 042c
B3: Anti-SIRPα antibody C73 (antibody, human IgG4, V domains shown)
VH: QIQLVQSGPELKKPGETVKISCKASGYTFTTYGMSWVKQAPGKGLKWMVWINTYSGVPTYADDFKGRFAFSLETSASTSYLQINNLKNEDTATYFCARDPHYYGSSPAWFVYWGQGTLVTVSA
VL: DIVMTQSQKFMSTTIGDRVSITCEASQIVGIAVAWYQQKPGQSPKLLIYSASNRYTGVPDRFTGSGSGTDFTLTISNMQSEDLANYFCQQYSAYPFTFGSGTKLEVK
notes: Mouse variable regions; also called 073c; 073C
B4: Anti-SIRPα antibody C35 (antibody, V domains shown)
VH: QIQLVQSGPELRKPGETVKISCKASGYSFTNYAMNWVKQAPGKVLKWMGFINTYTGEPTYADDFKGRFAFSLETSASTAYLQINNLKNEDTATYFCTRTRGYYDFDGGAFDYWGQGTSLTVSS
VL: DIVMTQSQKFMSTSIGDRVSVTCKASQNVGTHLAWYQQKPGQSPKALIFSASYRYIGVPDRFTGSGSGTDFTLTITNVQSEDLAEYFCQQYNTYPLTFGAGTKLELK
notes: Tested as purified chimeric antibody; also called 035
B5: Anti-PDL1 antibody C71 (antibody, V domains shown)
VH: EVQVVESGGGLVQSGGSLKLSCAGSGFTESAGFMVWHRQVPGKERELVALIATPSGSTNYADSVKGRFTISRDNGKNTVYLQMNSLKPEDTAVYYCNIRGYWGQGTLVTVSS
notes: Heavy chain antibody (single domain variable region); also called Anti-PDL1, C71
B6: Anti-PDL1/SIRPα bispecific antibody ES019-024 (bispecific antibody, not shown: a dimerising Fc or GST)
light: QIVLTQSPAIMSASPGEKVTLTCSASSSVSSSYLYWYQQKPGSSPKLWIYSTSNLASGVPARFSGSGSGTSYSLTISSMEAEDAASYFCHQWSSYPYTFGGGTKLEIK
heavy (part 1 of 2): EVQLQQSGAELVKPGASVKLSCTASGFNIKDYYMHWVKQRTEQGLEWIGRIDPEDGETKYAPKFQGKATITADTSSNTAYLQLSSLTSEDTAVYYCDRGLAYWGQGTLVTVSA
heavy (part 2 of 2): EVQVVESGGGLVQSGGSLKLSCAGSGFTESAGFMVWHRQVPGKERELVALIATPSGSTNYADSVKGRFTISRDNGKNTVYLQMNSLKPEDTAVYYCNIRGYWGQGTLVTVSS
B7: Anti-PDL1/SIRPα bispecific antibody ES019-020 (bispecific antibody, not shown: small tags and cut ends; a dimerising Fc or GST)
light (part 1 of 2): QIVLTQSPAIMSASPGEKVTLTCSASSSVSSSYLYWYQQKPGSSPKLWIYSTSNLASGVPARFSGSGSGTSYSLTISSMEAEDAASYFCHQWSSYPYTFGGGTKLEIK
light (part 2 of 2): EVQVVESGGGLVQSGGSLKLSCAGSGFTESAGFMVWHRQVPGKERELVALIATPSGSTNYADSVKGRFTISRDNGKNTVYLQMNSLKPEDTAVYYCNIRGYWGQGTLVTVSS
heavy: EVQLQQSGAELVKPGASVKLSCTASGFNIKDYYMHWVKQRTEQGLEWIGRIDPEDGETKYAPKFQGKATITADTSSNTAYLQLSSLTSEDTAVYYCDRGLAYWGQGTLVTVSA

Tests used:
[1] = biological target: T1, mFc tagged human SIRPα v1 ECD recombinant protein (human, UniProt P78324 31-373); experiment: competitive ELISA; row antibody in excess in solution, coated mAb hu1H9G4
T1 construct: extracellular domain; not shown: mouse Fc tag
Procedure: (§1) Competitive ELISA assay was used for epitope binning of purified chimeric antibodies. Briefly excessive competitor antibody and mFc tagged human SIRPα v1 ECD recombinant protein were co-incubated with ELISA microplate coated antibody. After washing, HRP labeled anti-mouse Fc 2nd antibody (Sigma) was added and incubated at 37° C. for 1 hour. Then, 100 μl/well of TMB solution (Biotechnology) was added. After incubation for 15 minutes at room temperature, the reaction was stopped by the addition of 50 μl of 1N HCl. OD 450 nm was read. Competition ratio was calculated. The antibodies that can compete each other for binding to SIRPα may have related binding epitopes.

[2] = biological target: T1, mFc tagged human SIRPα v1 ECD …; experiment: competitive ELISA; row antibody in excess in solution, coated mAb 025c
Procedure: as §1

[3] = biological target: T1, mFc tagged human SIRPα v1 ECD …; experiment: competitive ELISA; row antibody in excess in solution, coated mAb 042c
Procedure: as §1

[4] = biological target: Full length human SIRPα v1 with beta-gal fragment (ED) at its C-terminal, in K562 cells (human, UniProt P78324 31-504); experiment: cell-based or functional assay
[5] = biological target: T2, human SIRPα v1 ECD recombinant protein (human, UniProt P78324 31-373); experiment: competitive ELISA, plate-coated human SIRPα v1 ECD; blocked ligand: mFc tagged human CD47 ECD
T2 construct: extracellular domain; Coated on the ELISA plate
Procedure: (§2) Competitive ELISA assay was used to determine whether the purified chimeric antibodies can block CD47 and SIRPα interaction. Briefly, antibody and mFc tagged human CD47 ECD recombinant protein were co-incubated with ELISA microplate coated human SIRPα v1 ECD or human SIRPα v2 ECD recombinant protein. The concentration of soluble ECD of CD47 is 25 nM, and the concentration of soluble ECD of SIRPα is 20 nM. After washing, HRP labeled anti-mouse Fc 2nd antibody (Sigma) was added and incubated at 37° C. for 1 hour. Then, 100 μl/well of TMB solution (Biotechnology) was added. After incubation for 15 minutes at room temperature, the reaction was stopped by the addition of 50 μl of 1N HCl. OD 450 nm was read. Blocking ratio was determined by blockade of human SIRPα ECD recombinant protein binding to ELISA microplate coated human CD47 ECD recombinant protein. All antibodies as tested can block interaction between human CD47 and different human SIRPα variants.

[6] = biological target: T3, human SIRPα v2 ECD recombinant protein (human); experiment: competitive ELISA, plate-coated human SIRPα v2 ECD; blocked ligand: mFc tagged human CD47 ECD
T3 construct: extracellular domain; Coated on the ELISA plate
Procedure: as §2

[7] = biological target: T4, human SIRPα v1 on CHOK1 cells (human, UniProt P78324 31-504); experiment: FACS, CHOK1 cells stably expressing human SIRPα v1
T4 construct: whole, on cells; also called CHOK1-hSIRPα v1; cell surface human SIRPα v1
Text: (§3) Binding activity of the purified chimeric antibodies against human SIRPα variants was detected by FACS assay using CHOK1 cells or 293F cells stably expressing human SIRPα v1 and CHOK1 cells stably expressing human SIRPα v2. […] EC₅₀ and top signal calculated using GraphPad Prism9.0.

[8] = biological target: T5, human SIRPα v2 on CHOK1 cells (human, UniProt P78324 31-504); experiment: FACS, CHOK1 cells stably expressing human SIRPα v2
T5 construct: whole, on cells; also called CHOK1-hSIRPα v2; cell surface human SIRPα v2
Text: as §3

[9] = biological target: T2, human SIRPα v1 ECD recombinant protein; experiment: competitive ELISA, plate-coated human SIRPα v1 ECD; blocked ligand: mFc tagged human CD47 ECD; remark: listed apart in the source
Procedure: as §2, with “ECD” for “ECD or human SIRPα v2 ECD”, “protein.” for “protein. The concentration of soluble ECD of CD47 is 25 nM, and the concentration of soluble ECD of SIRPα is 20 nM.”, “protein.” for “protein. All antibodies as tested can block interaction between human CD47 and different human SIRPα variants.”

human PDL1 on cells [10] = biological target: T6, human PDL1 on cells (human, UniProt Q9NZQ7 19-290); experiment: cell-based or functional assay
[11] = biological target: human PDL1 protein (Octet assay) (human, UniProt Q9NZQ7 19-238); experiment: Octet; antibody on sensor, PDL1 protein in solution
Procedure: The Anti-PDL1/SIRPα bispecific protein were characterized for binding affinity against human PDL1 using Octet assay (ForeBio) according to manufacturer's manual, separately. Briefly, the antibodies were coupled on sensors and then the sensors were dipped into PDL1 protein gradients (start at 200 nM, with 2-fold dilution and totally 8 doses). Their binding responses were measured in real-time and results were fit globally.

human PDL1 on cells [12] = biological target: T6, human PDL1 on cells; experiment: FACS, Raji cells overexpressing human PDL1, anti-human Fc-PE, MFI
Procedure: Approximately 100,000 Raji cells overexpressing human PDL1 were washed with wash buffer and incubated with 100 ul serial dilution of PDL1/SIRPα bispecific protein for 30 minutes on ice. Cells were then washed twice with wash buffer and incubated with 100 ul of anti-human Fc-PE for 30 minutes on ice. Cells were then washed twice with wash buffer and analyzed on a FACS Canto II analyzer (BD Biosciences). […] The bispecific antibodies ES019-025, ES019-026 bound Raji/hPDL1 similar to anti-PDL1 monoclonal antibody C71 whereas ES019-020, ES019-024 bound Raji/hPDL1 to a lesser extent relative to anti-PDL1, C71.

T1 sequence (P78324 31-373): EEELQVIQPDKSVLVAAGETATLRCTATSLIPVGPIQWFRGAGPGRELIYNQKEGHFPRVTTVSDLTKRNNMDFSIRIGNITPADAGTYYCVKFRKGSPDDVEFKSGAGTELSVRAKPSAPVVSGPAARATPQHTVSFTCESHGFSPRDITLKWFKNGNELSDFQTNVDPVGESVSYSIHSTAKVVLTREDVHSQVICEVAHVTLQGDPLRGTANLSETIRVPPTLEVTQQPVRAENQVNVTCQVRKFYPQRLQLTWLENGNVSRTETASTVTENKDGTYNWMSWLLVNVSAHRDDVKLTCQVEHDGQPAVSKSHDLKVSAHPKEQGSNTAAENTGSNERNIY
T2 sequence (P78324 31-373): as above
T4 sequence (P78324 31-504): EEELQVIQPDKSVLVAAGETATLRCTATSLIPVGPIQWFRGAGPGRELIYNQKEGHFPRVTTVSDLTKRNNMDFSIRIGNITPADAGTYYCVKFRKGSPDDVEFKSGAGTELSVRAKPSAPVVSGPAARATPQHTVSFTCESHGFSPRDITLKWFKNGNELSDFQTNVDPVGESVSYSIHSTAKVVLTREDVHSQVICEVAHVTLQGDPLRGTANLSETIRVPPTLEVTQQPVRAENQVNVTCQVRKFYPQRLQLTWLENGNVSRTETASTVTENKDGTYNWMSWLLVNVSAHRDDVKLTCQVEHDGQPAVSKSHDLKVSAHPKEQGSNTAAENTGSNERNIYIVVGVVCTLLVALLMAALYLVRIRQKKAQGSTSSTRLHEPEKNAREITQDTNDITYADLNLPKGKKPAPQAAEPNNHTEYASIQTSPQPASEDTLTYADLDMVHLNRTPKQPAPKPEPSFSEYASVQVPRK
Full length human SIRPα v1 with beta-gal fragment (ED) at its C-terminal, in K562 cells, sequence (P78324 31-504): as above
T5 sequence (P78324 other isoform, or with tags, fused parts or gaps limits assumed): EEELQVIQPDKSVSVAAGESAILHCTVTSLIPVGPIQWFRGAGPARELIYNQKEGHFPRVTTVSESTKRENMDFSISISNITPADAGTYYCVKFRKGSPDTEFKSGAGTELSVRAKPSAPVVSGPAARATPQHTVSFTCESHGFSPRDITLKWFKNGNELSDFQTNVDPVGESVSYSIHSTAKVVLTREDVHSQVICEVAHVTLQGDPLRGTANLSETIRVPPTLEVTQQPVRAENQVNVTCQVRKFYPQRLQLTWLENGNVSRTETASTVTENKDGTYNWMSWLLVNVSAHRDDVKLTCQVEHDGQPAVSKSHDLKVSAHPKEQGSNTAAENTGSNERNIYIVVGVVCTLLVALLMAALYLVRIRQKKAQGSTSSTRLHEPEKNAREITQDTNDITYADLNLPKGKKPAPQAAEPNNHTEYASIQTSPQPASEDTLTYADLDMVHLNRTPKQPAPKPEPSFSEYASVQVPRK
human PDL1 protein (Octet assay), sequence (Q9NZQ7 19-238 limits assumed): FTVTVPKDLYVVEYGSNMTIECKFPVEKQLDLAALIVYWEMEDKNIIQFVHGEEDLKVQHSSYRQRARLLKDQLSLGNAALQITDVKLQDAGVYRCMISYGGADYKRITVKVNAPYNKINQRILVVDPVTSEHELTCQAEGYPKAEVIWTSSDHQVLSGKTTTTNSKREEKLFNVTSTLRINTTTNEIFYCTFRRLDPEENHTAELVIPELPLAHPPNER
T6 sequence (Q9NZQ7 19-290): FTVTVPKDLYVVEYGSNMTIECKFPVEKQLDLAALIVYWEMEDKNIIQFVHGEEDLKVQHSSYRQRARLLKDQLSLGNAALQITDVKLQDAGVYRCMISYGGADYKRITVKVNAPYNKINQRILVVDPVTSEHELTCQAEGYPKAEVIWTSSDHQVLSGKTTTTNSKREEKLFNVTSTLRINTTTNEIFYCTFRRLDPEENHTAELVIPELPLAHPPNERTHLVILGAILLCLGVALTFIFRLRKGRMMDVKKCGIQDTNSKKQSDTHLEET

| Binder | % Competition [1] | % Competition [2] | % Competition [3] | EC50 (read off the curve) (human PDL1 on cells [10]) | Kd [11] | koff [11] | kon [11] | EC50 (read off the curve) (human PDL1 on cells [12]) | further results |
| --- | --- | --- | --- | --- | --- | --- | --- | --- | --- |
| B1 | 90.5% | 14.5% | 82.6% | – | – | – | – | – | – |
| B2 | 29.8% | 8.9% | 93.9% | – | – | – | – | – | IC50 (SHP-1 recruitment blocking) [4]: 0.99 nM; TOP blocking (SHP-1 recruitment) [4]: 70%; IC50 [5]: 3.6 nM; TOP blocking [5]: 97.1%; IC50 [6]: 4.49 nM; TOP blocking [6]: 94.6%; EC50 [7]: 1.9 nM; TOP MFI [7]: 73200 MFI; EC50 [8]: 4.21 nM; TOP MFI [8]: 54800 MFI |
| B3 | 37.7% | 9.1% | 93.6% | – | – | – | – | – | IC50 (SHP-1 recruitment blocking) [4]: 5.66 nM; TOP blocking (SHP-1 recruitment) [4]: 51.2%; IC50 [5]: 2.74 nM; TOP blocking [5]: 95.1%; IC50 [6]: 4.92 nM; TOP blocking [6]: 82.8%; EC50 [7]: 1.5 nM; TOP MFI [7]: 67800 MFI; EC50 [8]: 2.12 nM; TOP MFI [8]: 47300 MFI |
| B4 | – | – | – | – | – | – | – | – | IC50 (read off the curve) [9]: ~2 nM |
| B5 | – | – | – | ~2 nM | 5.31 nM | 0.00501 s⁻¹ | 942000 M⁻¹ s⁻¹ | ~0.2 nM | – |
| B6 | – | – | – | ~2 nM | 6.56 nM | 0.00603 s⁻¹ | 920000 M⁻¹ s⁻¹ | ~0.6 nM | – |
| B7 | – | – | – | ~3 nM | 5.54 nM | 0.00509 s⁻¹ | 918000 M⁻¹ s⁻¹ | ~0.6 nM | – |
